# Measurements reported in patent publication US20130108548A1 (VECT HORUS, published 2013).
# Positions of bridges follow the written chain, without caps; N, C: chain ends. Non-standard residues stand in square brackets, D forms with d. No end group written: not given here.
# B1: peptide SEQ ID NO: 5 radiolabelled using tritium (peptide)
# peptide: XMXRLRGC
# modifications: (D)-pen at 1; Thz at 3; tritiated, by the method of Example IX a tritiated propionyl group on the N-term amine
# B2: peptide SEQ ID NO: 10 (peptide)
# peptide: [dC]MPRLR[dA]C
# modifications: disulfide 1-8 (inferred)
# notes: also called (D)-cys-Met-Pro-Arg-Leu-Arg-(D)-ala-Cys
# Legend:
# [1] = molecular target: rat LDLR on rat brain capillary endothelial cells (RBCEC) (rat) (UniProt P35952); test: cell-based or functional assay
# [2] = molecular target: mouse LDLR in tissues of wild-type mice (mouse, UniProt P35951 22-862); test: cell-based or functional assay
# [3] = molecular target: T1, human low-density lipoprotein receptor fused with RFP, on CHO-hLDLR-RFP cells (human, UniProt P01130 22-860); test: competition on CHO-hLDLR-RFP cells: 10 uM test peptide against 10 uM SEQ ID NO: 17/STag, STag read by FRET
# T1 construct: whole, on cells; also called human LDLR; not shown: red fluorescent protein (RFP) fused at the C-term (intracellular end)
# Chain of mouse LDLR in tissues of wild-type mice (P35951 22-862): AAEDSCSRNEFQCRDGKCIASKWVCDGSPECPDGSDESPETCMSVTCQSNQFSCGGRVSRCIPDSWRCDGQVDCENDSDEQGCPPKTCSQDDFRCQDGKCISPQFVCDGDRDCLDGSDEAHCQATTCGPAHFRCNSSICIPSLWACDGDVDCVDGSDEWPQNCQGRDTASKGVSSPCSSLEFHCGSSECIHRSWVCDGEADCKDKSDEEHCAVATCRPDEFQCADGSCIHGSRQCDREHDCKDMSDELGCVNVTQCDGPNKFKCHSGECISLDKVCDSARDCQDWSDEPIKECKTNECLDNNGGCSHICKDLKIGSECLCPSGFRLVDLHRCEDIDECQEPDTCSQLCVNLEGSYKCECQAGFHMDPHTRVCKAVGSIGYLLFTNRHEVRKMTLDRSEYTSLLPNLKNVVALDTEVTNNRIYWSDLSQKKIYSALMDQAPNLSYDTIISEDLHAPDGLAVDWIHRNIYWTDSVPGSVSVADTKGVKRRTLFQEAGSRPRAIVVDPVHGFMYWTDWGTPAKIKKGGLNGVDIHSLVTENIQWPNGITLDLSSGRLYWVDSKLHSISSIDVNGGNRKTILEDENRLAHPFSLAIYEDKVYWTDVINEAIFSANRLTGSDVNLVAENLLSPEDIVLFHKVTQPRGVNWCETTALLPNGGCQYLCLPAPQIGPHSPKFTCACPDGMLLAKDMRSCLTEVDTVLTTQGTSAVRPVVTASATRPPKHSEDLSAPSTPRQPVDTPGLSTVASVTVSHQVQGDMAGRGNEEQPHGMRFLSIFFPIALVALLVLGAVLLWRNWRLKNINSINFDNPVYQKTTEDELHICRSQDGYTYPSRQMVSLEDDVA
# Chain of rat LDLR on rat brain capillary endothelial cells (RBCEC) (rat) (P35952 22-879): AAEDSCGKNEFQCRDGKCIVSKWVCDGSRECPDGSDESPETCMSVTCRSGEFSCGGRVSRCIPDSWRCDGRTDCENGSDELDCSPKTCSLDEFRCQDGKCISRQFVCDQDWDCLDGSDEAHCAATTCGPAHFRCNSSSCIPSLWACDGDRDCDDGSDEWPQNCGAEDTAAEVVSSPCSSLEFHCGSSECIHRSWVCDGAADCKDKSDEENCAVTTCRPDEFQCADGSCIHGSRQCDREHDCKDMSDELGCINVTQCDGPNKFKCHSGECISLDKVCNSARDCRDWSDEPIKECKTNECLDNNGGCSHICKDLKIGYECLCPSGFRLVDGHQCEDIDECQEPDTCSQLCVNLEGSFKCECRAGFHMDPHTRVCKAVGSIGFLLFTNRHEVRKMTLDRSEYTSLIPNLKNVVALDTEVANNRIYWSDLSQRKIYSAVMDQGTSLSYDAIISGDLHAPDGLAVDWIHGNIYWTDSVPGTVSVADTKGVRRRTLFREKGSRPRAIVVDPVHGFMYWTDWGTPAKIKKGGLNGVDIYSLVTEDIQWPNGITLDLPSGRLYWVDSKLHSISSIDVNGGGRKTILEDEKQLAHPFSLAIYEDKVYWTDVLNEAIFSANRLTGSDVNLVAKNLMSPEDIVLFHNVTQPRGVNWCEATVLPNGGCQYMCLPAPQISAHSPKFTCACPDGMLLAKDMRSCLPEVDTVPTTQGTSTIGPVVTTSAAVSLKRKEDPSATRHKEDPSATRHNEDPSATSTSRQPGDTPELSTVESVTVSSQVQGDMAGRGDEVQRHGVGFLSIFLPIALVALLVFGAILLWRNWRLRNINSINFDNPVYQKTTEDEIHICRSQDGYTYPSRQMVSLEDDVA
molecule,measurement,setting,value
LDL made fluorescent by adsorption of DiI (ligand),saturation of the transport into the lower compartment of the in-vitro BBB model (WT) (µg per insert),[1],4
B1,"peptide concentration in the adrenal glands, LDLR-KO mice compared to wild-type mice, 10 min after intravenous injection",[2],~2 fold decrease
same,"peptide concentration in the intestine, LDLR-KO mice compared to wild-type mice, 10 min after intravenous injection",[2],~6 fold decrease
same,"peptide concentration in the liver, LDLR-KO mice compared to wild-type mice, 10 min after intravenous injection",[2],~5 fold decrease
B2,Displacement of the control peptide,[3],54%
